Target: NM fibers (amyloid fibers of NM; also used sonicated as seed) (Saccharomyces cerevisiae) (UniProt P05453)
Assay: seeded fiber elongation, sedimentation and acrylodan wavelength shift assays, Lineweaver-Burk plot

Sequence of NM fibers (amyloid fibers of NM; also used sonicated as seed) (Saccharomyces cerevisiae) (P05453 1-253): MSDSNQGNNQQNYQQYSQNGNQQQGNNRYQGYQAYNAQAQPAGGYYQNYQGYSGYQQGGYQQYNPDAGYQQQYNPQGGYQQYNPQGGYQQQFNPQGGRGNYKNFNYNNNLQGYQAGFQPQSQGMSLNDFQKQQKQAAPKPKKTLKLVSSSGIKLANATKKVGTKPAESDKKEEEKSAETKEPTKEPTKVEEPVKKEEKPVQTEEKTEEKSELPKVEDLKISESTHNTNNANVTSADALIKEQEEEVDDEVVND

## NM^T158C-acrylodan (soluble) (from UniProt P05453 1-253) (other; other documents disagree on this pair)
  Km: 0.12 µM
  kconf/Km (conformational conversion efficiency): 42000 M⁻¹ s⁻¹

— patent US20060105320A1
